Measured values reported in paper PMC6856128 (Scientific Reports, 2019).

Target: the molecule itself
Test: SEC

B1: Mycobacterium tuberculosis CysA2 (enzyme)
chain: MARCDVLVSADWAESNLHAPKVVFVEVDEDTSAYDRDHIAGAIKLDWRTDLQDPVKRDFVDAQQFSKLLSERGIANEDTVILYGGNNNWFAAYAYWYFKLYGHEKVKLLDGGRKKWELDGRPLSSDPVSRPVTSYTASPPDNTIRAFRDEVLAAINVKNLIDVRSPDEFSGKILAPAHLPQEQSQRPGHIPGAINVPWSRAANEDGTFKSDEELAKLYADAGLDNSKETIAYCRIGERSSHTWFVLRELLGHQNVKNYDGSWTEYGSLVGAPIELGS
B1 was tested, and the “stoichiometry N” value was 2.
